Experimental data as given in US20100190710A1, “IL-23 RECEPTOR ANTAGONISTS AND USES THEREOF” (Valorisation HSJ, Societe en Commandite, priority 2007, published 2010).
Entries after “also recorded” stand apart in the source; their conditions may differ. Blank lines part the entries; values can stand above or below the molecule they belong to. Square brackets hold non-standard residues; d marks the D form. Ends that are not written are not given here.

What was measured:
IL-23 receptor = biological target: T1, IL-23 receptor (Homo sapiens, UniProt Q5VWK5); experiment: IL-23-induced STAT3 phosphorylation in PMA-activated HL-60 monocytes (Western blot); assay type: cell-based; parameters: endogenous in cells; settings: PMA-activated HL-60 human monocytes; peptide 1 μM, 30 min pre-incubation; IL-23 10 ng/ml, 15 min
T1 sequence (Q5VWK5 24-629): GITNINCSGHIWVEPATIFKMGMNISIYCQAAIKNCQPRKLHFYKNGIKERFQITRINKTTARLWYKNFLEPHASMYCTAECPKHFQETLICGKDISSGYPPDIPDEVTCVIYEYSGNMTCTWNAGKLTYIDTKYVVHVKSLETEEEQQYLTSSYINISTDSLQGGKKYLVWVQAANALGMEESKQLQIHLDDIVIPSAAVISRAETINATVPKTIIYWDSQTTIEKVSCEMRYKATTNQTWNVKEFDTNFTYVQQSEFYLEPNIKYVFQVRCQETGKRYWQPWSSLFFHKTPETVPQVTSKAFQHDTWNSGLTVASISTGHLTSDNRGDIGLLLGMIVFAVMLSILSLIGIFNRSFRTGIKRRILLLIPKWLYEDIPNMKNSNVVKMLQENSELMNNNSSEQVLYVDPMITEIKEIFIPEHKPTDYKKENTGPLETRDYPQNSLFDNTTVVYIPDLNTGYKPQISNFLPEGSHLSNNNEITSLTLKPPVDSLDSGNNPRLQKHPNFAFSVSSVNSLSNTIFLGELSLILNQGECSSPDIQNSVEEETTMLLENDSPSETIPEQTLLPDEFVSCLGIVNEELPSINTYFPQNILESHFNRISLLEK
Method: FIG. 2 is a graph showing the results of efficacy screening of peptides designed from the IL-23 receptor. HL-60 human monocytes were pre-incubated for 30 minutes with the particular peptides (1 μM) and stimulated for 15 minutes with IL-23 (10 ng/ml). Western Blot analysis of phosphorylated-STAT3 and total STAT3 was performed on cell lysates. Immunoblot densitometry was measured using ImagePro4+ software. […] FIGS. 3A and 3B are graphs showing inhibition of IL-23-induced STAT3 phosphorylation and TNFα generation. […] Western Blot analysis was performed on cell lysates, and immunoblot densitometry was measured using ImagePro4+ software. […] TNFα production was quantified by ELISA 24 hours after stimulation with IL-23 using the Quantikine ELISA Kit (R&D systems). […] D-peptides 2303, 2305, 2307 and 2309 (1 μM) inhibit IL-23-induced STAT3 phosphorylation in phorbol 12-myristate 13-acetate (PMA)-activated human monocytes (HL-60) (FIG. 2).

IL-23R = biological target: T2, IL-23R (Mus musculus, UniProt Q8K4B4); experiment: IL-23-induced STAT3 phosphorylation in freshly isolated splenocytes (Alpha Screen SureFire p-STAT-3); assay type: cell-based
T2 construct: Spleens were sterilely removed from mice, sliced, and mashed in the presence of PBS buffer; from tissue; host or cells: mouse spleen: freshly isolated splenocytes, and CD4+ cells differentiated into TH17 cells
T2 sequence (Q8K4B4 24-644): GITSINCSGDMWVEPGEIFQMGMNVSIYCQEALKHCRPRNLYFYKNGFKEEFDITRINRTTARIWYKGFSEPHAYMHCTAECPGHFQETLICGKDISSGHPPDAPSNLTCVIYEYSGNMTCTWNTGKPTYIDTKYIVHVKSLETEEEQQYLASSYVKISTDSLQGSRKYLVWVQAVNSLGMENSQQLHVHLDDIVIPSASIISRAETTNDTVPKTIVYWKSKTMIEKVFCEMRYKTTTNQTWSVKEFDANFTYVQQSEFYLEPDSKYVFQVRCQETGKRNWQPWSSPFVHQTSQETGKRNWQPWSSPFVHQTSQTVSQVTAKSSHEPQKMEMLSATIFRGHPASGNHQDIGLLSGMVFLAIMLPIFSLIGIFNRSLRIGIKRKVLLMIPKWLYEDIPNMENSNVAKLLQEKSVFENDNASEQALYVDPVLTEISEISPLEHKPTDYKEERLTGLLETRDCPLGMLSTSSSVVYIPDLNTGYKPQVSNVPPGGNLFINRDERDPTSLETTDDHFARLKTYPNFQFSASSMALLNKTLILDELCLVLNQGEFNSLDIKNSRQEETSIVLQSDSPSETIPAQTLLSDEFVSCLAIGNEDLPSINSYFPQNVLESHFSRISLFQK
Method: Spleens were sterilely removed from mice, sliced, and mashed in the presence of PBS buffer, 2% fetal bovine serum, and 1 mM EDTA. Tissue was allowed to pass through a number 26 syringe and was filtered through a 70 μm mesh nylon strainer. Cells were cultured with non-essential amino acids, 2 μg/ml of anti-CD3, and 20 μg/ml of anti-CD-28 as survival and differentiation factors.
Splenocytes or TH17 cells were distributed in 384-well plates (Optiplate; Perkin Elmer) (100,000 cells/well). Cells were pre-incubated for 30 minutes with different concentrations of peptide APG-2305 or APG-2309 and incubated with 25 ng/ml of IL-23 (R&D systems) for 10 minutes. STAT3 phosphorylation was determined with the kit Alpha Screen SureFire p-STAT-3 assay from Perkin Elmer according to manufacturer's instructions. Briefly, after incubation with IL-23, cells were lysed and contacted with (1) protein A acceptor conjugated beads coated with anti-p-STAT-3 (Tyr705) and (2) streptavidin-coated donor beads. The resulting signal was measured with a Perkin Elmer Wallac En vision 2104 Multilabel reader. Graphs were generated using GraphPrism 4 software.
The effect of peptide APG-2305 and APG-2309 derivatives on IL-23-induced STAT3 phosphorylation was determined using CD-1 mice freshly isolated splenocytes and the Alpha Screen p-STAT3 assay (see above materials and methods) (FIGS. 6 and 7). […] As described herein, based on the efficacy of derivatives, we have identified regions in APG-2305 and APG-2309 peptides that are important for their ability to affect IL-23R activity.

[1] = biological target: T3, human IL-23 receptor (IL-23R) on PMA-activated HL-60 human monocytes (human, UniProt Q5VWK5 24-629); experiment: cell-based or functional assay
T3 sequence (looked up): T1 sequence (Q5VWK5 24-629)

[2] = biological target: T4, mouse IL-23 receptor (IL-23R) on mouse splenocytes and differentiated TH17 cells (mouse, UniProt Q8K4B4 24-644); experiment: cell-based or functional assay
T4 sequence (looked up): T2 sequence (Q8K4B4 24-644)

[3] = mouse splenocytes (FIGS. 6 and 7)

Molecule: DLSSGYPPDI [Peptide 2301]
effect on IL-23-induced STAT3 phosphorylation (IL-23 receptor): agonistic properties; also recorded: agonist of IL-23R biological activity

activity of derivative compared to parent peptide, STAT3 phosphorylation assay (IL-23R; [3]): measurable loss of activity
Molecule: EEQQYL [Peptide 2305-5]

activity of derivative compared to parent peptide, STAT3 phosphorylation assay (IL-23R; [3]): measurable loss of activity
Molecule: EQQYL [Peptide 2305-6]

activity of derivative compared to parent peptide, STAT3 phosphorylation assay (IL-23R; [3]): increases the activity
Molecule: ESKQLQL [Peptide 2309-3]

Molecule: KKYLVWVQ [Peptide 2307]
effect on IL-23-induced STAT3 phosphorylation (IL-23 receptor): antagonize IL-23-induced STAT3 phosphorylation; also recorded: demonstrable efficacy; also recorded: inhibit

Molecule: LPDEVTCV [Peptide 2303]
effect on IL-23-induced STAT3 phosphorylation (IL-23 receptor): antagonize IL-23-induced STAT3 phosphorylation; also recorded: demonstrable efficacy; also recorded: inhibit

Molecule: LVLDDLHLQLQKSEEMGLANAAQV (not fully specified (some residues); also: D-amino acids, extent not given here) [Peptide 2309-2-1]
activity of derivative compared to parent peptide, STAT3 phosphorylation assay (IL-23R; [3]): better efficacy than the parent 2309 peptide

activity of derivative compared to parent peptide, STAT3 phosphorylation assay (IL-23R; [3]): increases the activity
Molecule: MAESKQLQL [Peptide 2309-1]

activity of derivative compared to parent peptide, STAT3 phosphorylation assay (IL-23R; [3]): total loss of activity
Molecule: TEEAQQYL [Peptide 2305-1]

activity of derivative compared to parent peptide, STAT3 phosphorylation assay (IL-23R; [3]): increased the activity
Molecule: TEEE [Peptide 2305-11]

activity of derivative compared to parent peptide, STAT3 phosphorylation assay (IL-23R; [3]): increased the activity
Molecule: TEEEQ [Peptide 2305-10]

activity of derivative compared to parent peptide, STAT3 phosphorylation assay (IL-23R; [3]): abolished the activity
Molecule: TEEEQQ [Peptide 2305-9]

activity of derivative compared to parent peptide, STAT3 phosphorylation assay (IL-23R; [3]): abolished the activity
Molecule: TEEEQQY [Peptide 2305-8]

inhibition of STAT3 phosphorylation by derivative (IL-23R; mouse splenocytes (FIG. 7)): 100% | increase in activity relative to the parent peptide (IL-23R; [3]): 50%
Molecule: VQAANALGMEESKQLQLHLDDLVL [Peptide 2309-1-1, extended region of peptide 2309 covering part of the loop in D3 domain of IL-23R]

inhibition of IL-23-induced STAT3 phosphorylation in PMA-activated HL-60 monocytes, IC50 [1]: 2 nM | IC50 for IL-23-induced STAT3 phosphorylation in mouse splenocytes (25 ng/ml mouse IL-23) [2]: 2 nM
B1: peptide APG-2309 (peptide)
peptide: [dM][dE][dE][dS][dK][dQ][dL][dQ][dL]
inhibition of IL-23-induced tumor necrosis factor (TNF) formation in PMA-activated HL-60 monocytes (ELISA), IC50 [1]: 1.6 nM

inhibition of IL-23-induced STAT3 phosphorylation in mouse splenocytes (FIG. 6), change relative to parent 2305 [2]: 25%
B2: APG-2305-13 (peptide)
peptide: TEEEAAYL
